These results are taken from patent US20030068675, “Position dependent recognition of GNN nucleotide triplets by zinc fingers” (published 2003).

Broadly, the Kd is the equilibrium constant for the complex coming apart.

What all share (test): EMSA
Common to all, as to conditions: tags: MBP fusion

One data set addresses T1, ZFP SBS#1193 (synthetic).
T1 chain: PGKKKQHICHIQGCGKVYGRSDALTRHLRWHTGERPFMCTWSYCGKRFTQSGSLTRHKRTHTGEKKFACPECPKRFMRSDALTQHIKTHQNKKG
The method, boiled down: (§1)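 Purified ZFP was titrated against labeled double-stranded target (1 nM or lower, at least 10-fold below expected Kd) carrying the natural binding site with flanks. Binding buffer was 10 mM Tris pH 7.5, 100 mM KCl, 1 mM MgCl2, 0.1 mM ZnCl2, 5 mM DTT, 10% glycerol, 0.02% BSA, with equilibration for at least 45 min. Bound and free target were separated on a 10% polyacrylamide gel.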

For a further data set, the target named is T2, ZFP SBS#1191 (synthetic).
T2 chain: T1 chain with A81S, T83N
An outline of the steps:
as §1

For the next data set, the target named is ZFP SBS#1190 (synthetic). An outline of the steps:
as §1

In another data set the target is ZFP SBS#1192 (synthetic). The method, boiled down: as §1
A further data set has as its target T3, ZFP SBS#1178 (synthetic).
T3 chain: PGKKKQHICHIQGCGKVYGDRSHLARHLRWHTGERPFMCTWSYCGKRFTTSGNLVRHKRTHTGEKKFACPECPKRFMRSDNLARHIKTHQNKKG
The method, boiled down: as §1

In another data set the target is T4, ZFP SBS#1092 (synthetic).
T4 chain: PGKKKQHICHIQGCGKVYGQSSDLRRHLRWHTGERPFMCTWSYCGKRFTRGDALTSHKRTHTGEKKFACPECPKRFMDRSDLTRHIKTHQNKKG
The method, boiled down:
as §1

The next data set addresses T5, ZFP SBS#1170 (synthetic).
T5 chain: T4 chain with G51A, T55M, S56V
The method, boiled down:
as §1

Another data set addresses T6, ZFP SBS#1187 (synthetic, UniProt P08047).
T6 chain: T3 chain with T50R, G52D, N53A, V55T, N81A, A83R, R84E
The method, boiled down:
as §1

The target in another data set is ZFP SBS#1093 (synthetic). An outline of the steps:
as §1

For a further data set, the target named is T7, ZFP SBS#1099 (synthetic).
T7 chain: T3 chain with D20T, R21S, S22G, A25V, N53S, V55T, N81E, L82R, A83K
The method, boiled down:
as §1

In another data set the target is T8, ZFP SBS#1171 (synthetic).
T8 chain: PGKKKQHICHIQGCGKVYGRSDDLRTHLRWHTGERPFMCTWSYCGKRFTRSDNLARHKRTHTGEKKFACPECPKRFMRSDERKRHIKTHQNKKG
The method, boiled down:
as §1

The target in another data set is ZFP SBS#1175 (synthetic). An outline of the steps:
as §1

Another data set has as its target T9, ZFP SBS#1128 (synthetic).
T9 chain: T3 chain with D20E, S22G, H23D, A25T, T50D, S51P, N53A, A83T, R84Q
The method, boiled down: as §1

Another data set addresses ZFP SBS#1182 (synthetic). The method, boiled down: as §1
The target of the next data set is T10, ZFP SBS#1183 (synthetic).
T10 chain: T3 chain with T50Q, G52S, A83R, R84E
An outline of the steps: as §1

The target of another data set is T11, ZFP SBS#1126 (synthetic).
T11 chain: T1 chain with R26S, Q50T, S53E, T55V, S79G, Q84S
The method, boiled down: as §1

For a further data set, the target named is T12, ZFP SBS#1181 (synthetic).
T12 chain: T1 chain with T25R, R26Q, Q50T, S53E, T55V, S79G, Q84S
An outline of the steps: as §1

For the next data set, the target named is ZFP SBS#1173 (synthetic). The method, boiled down: as §1
A further data set deals with ZFP SBS#1174 (synthetic). The method, boiled down:
as §1

Another data set addresses ZFP SBS#1098 (synthetic). An outline of the steps: as §1
A further data set addresses T13, ZFP SBS#1172 (synthetic).
T13 chain: T4 chain with Q20R, S22D, D23N, R25T, G51S, A53H, S56R, D78E, S80G
The method, boiled down:
as §1

Another data set addresses T14, ZFP SBS#1157 (synthetic).
T14 chain: T1 chain with R20Q, D22A, A23N, T25A, Q50T, T83R
An outline of the steps:
as §1

In a further data set the target is T15, ZFP SBS#1156 (synthetic).
T15 chain: T1 chain with R20Q, D22A, A23N, T25A, G52S, S53A, T83R
An outline of the steps: as §1

The target in a further data set is T16, ZFP SBS#1189 (synthetic).
T16 chain: T1 chain with R20Q, D22A, A23N, T25A, Q50T, S53A, T83R
The method, boiled down:
as §1

In another data set the target is T17, ZFP SBS#1186 (synthetic).
T17 chain: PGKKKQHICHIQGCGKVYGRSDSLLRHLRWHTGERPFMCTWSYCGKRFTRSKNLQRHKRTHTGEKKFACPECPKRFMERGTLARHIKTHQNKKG
An outline of the steps: as §1

In the next data set the target is T18, ZFP SBS#1131 (synthetic).
T18 chain: T1 chain with R20E, S21R, D22G, A23D, S51R, G52A, S53H, T55E, Q84R
An outline of the steps:
as §1

The next data set has as its target ZFP SBS#1176 (synthetic). The method, boiled down: as §1
The target in another data set is T19, ZFP SBS#1184 (synthetic).
T19 chain: T1 chain with R20K, S21N, D22W, A23K, T25Q, R26A, S53N, T55A, A81N
An outline of the steps: as §1

A further data set addresses ZFP SBS#1180 (synthetic). An outline of the steps:
as §1

The target in the next data set is T20, ZFP SBS#1185 (synthetic).
T20 chain: T1 chain with R20K, S21N, D22W, A23K, T25Q, R26A, G52H, S53N, T55A, A81N
The method, boiled down:
as §1

In a further data set the target is T21, ZFP SBS#1177 (synthetic).
T21 chain: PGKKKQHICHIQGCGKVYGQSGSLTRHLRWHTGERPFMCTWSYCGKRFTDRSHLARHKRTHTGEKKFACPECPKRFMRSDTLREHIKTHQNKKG
An outline of the steps: as §1

The next data set addresses T22, ZFP SBS#479 (synthetic, UniProt P08047).
T22 chain: T3 chain with R21S, H23N, A25T, T50R, G52D, N53E, V55Q, N81A
The method, boiled down:
as §1

For another data set, the target named is T23, ZFP SBS#480 (synthetic).
T23 chain: T3 chain with R21S, H23N, A25T, T50R, S51A, G52D, N53T, V55R, N81A
The method, boiled down: as §1

The target in a further data set is ZFP SBS#1151 (synthetic). The method, boiled down:
as §1

Another data set concerns the target ZFP SBS#1188 (synthetic). An outline of the steps:
as §1

Changes are numbered by the printed parent chain.

Chain of ZFP SBS#1192 (synthetic) (chain, as listed by the source): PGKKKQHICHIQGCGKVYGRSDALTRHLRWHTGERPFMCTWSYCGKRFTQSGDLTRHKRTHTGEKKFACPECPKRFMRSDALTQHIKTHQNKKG
Chain of ZFP SBS#1188 (synthetic) (chain, as listed by the source): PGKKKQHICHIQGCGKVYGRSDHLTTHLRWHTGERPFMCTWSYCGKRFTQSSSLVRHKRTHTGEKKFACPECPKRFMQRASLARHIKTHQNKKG
Chain of ZFP SBS#1151 (synthetic) (chain, as listed by the source): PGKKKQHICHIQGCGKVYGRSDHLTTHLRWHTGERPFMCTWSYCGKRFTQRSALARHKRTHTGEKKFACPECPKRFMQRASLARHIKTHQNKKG
Chain of ZFP SBS#1190 (synthetic) (chain, as listed by the source): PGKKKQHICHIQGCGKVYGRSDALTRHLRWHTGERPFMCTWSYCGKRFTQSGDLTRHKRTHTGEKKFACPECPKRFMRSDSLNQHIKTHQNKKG
Chain of ZFP SBS#1180 (synthetic) (chain, as listed by the source): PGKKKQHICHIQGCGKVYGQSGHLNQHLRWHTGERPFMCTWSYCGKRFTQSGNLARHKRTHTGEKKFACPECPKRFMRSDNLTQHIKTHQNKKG

B1: ATGGCAGTG (dsDNA)
DNA 1: ATGGCAGTG
DNA 2: CACTGCCAT
B1: the Kd in the data set with ZFP SBS#1193 came out at 3.12 nM; with ZFP SBS#1191, 5.33 nM; with ZFP SBS#1190, 1.48 nM; with ZFP SBS#1192, 2.36 nM.

B2: GAGGATGGC (dsDNA)
DNA 1: GAGGATGGC
DNA 2: GCCATCCTC
Take B2: in the data set with ZFP SBS#1178, the Kd worked out at 0.085 nM.

B3: GCCTTGGCT (dsDNA)
DNA 1: GCCTTGGCT
DNA 2: AGCCAAGGC
On to B3, for which the results for the Kd in the data set with ZFP SBS#1092 and with ZFP SBS#1170 were 2.73 nM and 2.75 nM, respectively.

B4: CTGGTGGGC (dsDNA)
DNA 1: CTGGTGGGC
DNA 2: GCCCACCAG
Take B4: the Kd in the data set with ZFP SBS#1187 came out at 0.006 nM.

B5: GCGGAGTCG (dsDNA)
DNA 1: GCGGAGTCG
DNA 2: CGACTCCGC
In the case of B5, the Kd with ZFP SBS#1093 was 0.046 nM; with ZFP SBS#1099, 0.45 nM; in the data set with ZFP SBS#1171, 0.18 nM.

B6: AAGGTCGCC (dsDNA)
DNA 1: AAGGTCGCC
DNA 2: GGCGACCTT
Take B6: the Kd worked out at 8.9 nM with ZFP SBS#1175 and 5.45 nM with ZFP SBS#1128.

B7: CAGGAAGGC (dsDNA)
DNA 1: CAGGAAGGC
DNA 2: GCCTTCCTG
Regarding B7, the Kd worked out at 1.48 nM in the data set with ZFP SBS#1182 and 1.94 nM with ZFP SBS#1183.

B8: TTGGCTATG (dsDNA)
DNA 1: TTGGCTATG
DNA 2: CATAGCCAA
Consider B8, for which the Kd is 0.46 nM with ZFP SBS#1126 and 8.2 nM in the data set with ZFP SBS#1181.

B9: GCTGAAGGG (dsDNA)
DNA 1: GCTGAAGGG
DNA 2: CCCTTCAGC
As to B9, the values for the Kd with ZFP SBS#1173 and in the data set with ZFP SBS#1174 were 0.008 nM and 0.018 nM, respectively.

B10: GCCGGGGAG (dsDNA)
DNA 1: GCCGGGGAG
DNA 2: CTCCCCGGC
For B10, the figures for the Kd with ZFP SBS#1098 and with ZFP SBS#1172 were 0.055 nM and 0.01 nM, respectively.

B11: ATGGTTGAA (dsDNA)
DNA 1: ATGGTTGAA
DNA 2: TTCAACCAT
Regarding B11, the values for the Kd with ZFP SBS#1157, in the data set with ZFP SBS#1156 and with ZFP SBS#1189 were 0.885 nM, 7.2 nM and 1.51 nM, respectively.

B12: GCCGAGGTG (dsDNA)
DNA 1: GCCGAGGTG
DNA 2: CACCTCGGC
As to B12, binding in the data set with ZFP SBS#1186 was characterised by a dissociation constant (Kd) of 27.5 nM.

B13: GTGGGAGCC (dsDNA)
DNA 1: GTGGGAGCC
DNA 2: GGCTCCCAC
Consider B13, for which the Kd was 0.95 nM in the data set with ZFP SBS#1131 and 4.1 nM with ZFP SBS#1176.

B14: AAGGAAAGA (dsDNA)
DNA 1: AAGGAAAGA
DNA 2: TCTTTCCTT
Take B14: the Kd with ZFP SBS#1184 worked out at 2.79 nM; in the data set with ZFP SBS#1180 it was 4.83 nM; with ZFP SBS#1185 it was 5.25 nM.

B15: CCGGGCGCA (dsDNA)
DNA 1: CCGGGCGCA
DNA 2: TGCGCCCGG
Take B15: the affinity with ZFP SBS#1177, expressed as Kd, was 4.1 nM.

B16: GTGGCGGACC (dsDNA)
DNA 1: GTGGCGGACC
DNA 2: GGTCCGCCAC
For the molecule B16, the Kd was determined as 8.5 nM with ZFP SBS#479 and 5 nM with ZFP SBS#480.

B17: GTAGTATGG (dsDNA)
DNA 1: GTAGTATGG
DNA 2: CCATACTAC
With B17, the Kd in the data set with ZFP SBS#1151 came out at 1.63 nM; with ZFP SBS#1188, 2.74 nM.
